In publication PMC4459817, “Vasculotide reduces endothelial permeability and tumor cell extravasation in the absence of binding to or agonistic activation of Tie2” (EMBO Molecular Medicine, 2015):

T1: human Tie2-Fc (Fc-conjugated extracellular domain of Tie2) (human, UniProt Q02763 23-748)
T1 chain: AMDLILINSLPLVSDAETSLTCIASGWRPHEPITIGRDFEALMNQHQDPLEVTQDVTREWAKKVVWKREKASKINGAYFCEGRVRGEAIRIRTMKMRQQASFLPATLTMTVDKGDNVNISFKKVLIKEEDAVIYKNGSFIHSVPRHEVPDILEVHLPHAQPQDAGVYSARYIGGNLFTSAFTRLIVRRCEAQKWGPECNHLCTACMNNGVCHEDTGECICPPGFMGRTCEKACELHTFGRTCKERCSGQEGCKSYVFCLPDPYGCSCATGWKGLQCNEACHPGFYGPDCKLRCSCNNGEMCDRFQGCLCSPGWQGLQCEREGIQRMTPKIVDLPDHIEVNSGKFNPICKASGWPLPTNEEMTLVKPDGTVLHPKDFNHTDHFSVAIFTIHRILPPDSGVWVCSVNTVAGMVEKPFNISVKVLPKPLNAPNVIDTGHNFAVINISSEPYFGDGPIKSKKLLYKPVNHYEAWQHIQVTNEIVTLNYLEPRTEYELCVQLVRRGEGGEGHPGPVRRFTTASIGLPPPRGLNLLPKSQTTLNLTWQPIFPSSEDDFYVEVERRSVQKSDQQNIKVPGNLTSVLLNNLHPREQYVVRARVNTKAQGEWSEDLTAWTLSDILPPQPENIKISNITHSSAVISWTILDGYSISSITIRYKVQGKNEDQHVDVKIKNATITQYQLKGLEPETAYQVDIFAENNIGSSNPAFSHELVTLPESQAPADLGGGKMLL

T2: mouse Tie2-Fc (Fc-conjugated extracellular domain of Tie2) (mouse, UniProt Q02858 23-746)
T2 chain: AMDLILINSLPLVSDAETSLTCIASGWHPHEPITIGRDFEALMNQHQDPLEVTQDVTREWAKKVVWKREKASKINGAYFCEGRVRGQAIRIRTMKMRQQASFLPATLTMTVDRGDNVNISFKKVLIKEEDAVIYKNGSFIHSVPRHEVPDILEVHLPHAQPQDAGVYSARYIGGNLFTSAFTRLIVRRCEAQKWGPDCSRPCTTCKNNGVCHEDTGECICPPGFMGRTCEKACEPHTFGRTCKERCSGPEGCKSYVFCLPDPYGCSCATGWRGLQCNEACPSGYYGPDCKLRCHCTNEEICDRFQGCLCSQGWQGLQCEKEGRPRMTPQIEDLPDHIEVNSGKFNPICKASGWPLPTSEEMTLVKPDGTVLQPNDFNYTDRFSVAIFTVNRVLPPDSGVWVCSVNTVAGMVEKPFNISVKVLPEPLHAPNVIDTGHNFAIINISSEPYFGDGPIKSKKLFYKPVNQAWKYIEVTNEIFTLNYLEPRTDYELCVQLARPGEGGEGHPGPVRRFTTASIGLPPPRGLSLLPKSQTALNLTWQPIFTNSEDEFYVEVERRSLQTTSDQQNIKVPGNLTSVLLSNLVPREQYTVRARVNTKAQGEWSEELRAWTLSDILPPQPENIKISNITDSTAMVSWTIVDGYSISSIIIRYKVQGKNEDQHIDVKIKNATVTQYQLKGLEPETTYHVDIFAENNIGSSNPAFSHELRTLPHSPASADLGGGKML

B1: COMP-Ang1 (ligand)
chain: DLAPQMLRELQETNAALQDVRELLRHRVKEITFLKNTVMECDACGDTVHNLVNLCTKEGVLLKGGKREEEKPFRDCADVYQAGFNKSGIYTIYINNMPEPKKVFCNMDVNGGGWTVIQHREDGSLDFQRGWKEYKMGFGNPSGEYWLGNEFIFAITSQRQYMLRIELMDWEGNRAYSQYDRFHIGNEKQNYRLYLKGHTGTAGKQSSLILHGADFSTKDADNDNCMCKCALMLTGGWWFDACGPSNLNGMFYTAGQNHGKLNGIKWHYFKGPSYSLRSTTMMIRPLDF
B2: BowAng1 (Ang-F1-Fc-F1) (ligand)
chain: RDCADVYQAGFNKSGIYTIYINNMPEPKKVFCNMDVNGGGWTVIQHREDGSLDFQRGWKEYKMGFGNPSGEYWLGNEFIFAITSQRQYMLRIELMDWEGNRAYSQYDRFHIGNEKQNYRLYLKGHTGTAGKQSSLILHGADFSTKDADNDNCMCKCALMLTGGWWFDACGPSNLNGMFYTAGQNHGKLNGIKWHYFKGPSYSLRSTTMMIRPLDFRDCADVYQAGFNKSGIYTIYINNMPEPKKVFCNMDVNGGGWTVIQHREDGSLDFQRGWKEYKMGFGNPSGEYWLGNEFIFAITSQRQYMLRIELMDWEGNRAYSQYDRFHIGNEKQNYRLYLKGHTGTAGKQSSLILHGADFSTKDADNDNCMCKCALMLTGGWWFDACGPSNLNGMFYTAGQNHGKLNGIKWHYFKGPSYSLRSTTMMIRPLDF

What was measured:
[1] = target: Tie2 (Ang1 or Ang2 binding); settings: synthetic free form, ref Tournaire et al, 2004, cited from earlier work; for inhibition of Ang1 or Ang2 binding to Tie2: competition assays, tested up to 1 mM
From the text: For therapeutic use, recombinant variants or mimetics of multimeric Ang1 have been engineered, including Ang1* and Ang-F1-Fc-F1/Bow-Ang1 (Davis et al, [2003]; Daly et al, [2013]), MAT-Ang1 and COMP-Ang1 (Cho et al, [2004]; Koh, [2013]). […] The main focus of the original paper that discovered T7 (Tournaire et al, [2004]) was actually on a different peptide called ‘T4’ (NLLMAAS) and its potential use as a Tie2 inhibitor/antagonist.

human Tie2-Fc (hTie2-Fc) = target: T3, human Tie2-Fc (hTie2-Fc) (Homo sapiens, UniProt Q02763); experiment: SPR binding to human Tie2-Fc; settings: human Tie2-Fc, 0.625–10 nM, 37°C, pH 7.4, Fig9C
T3 construct: Purified human or mouse Tie2-Fc (i.e., Fc-conjugated extracellular domains of Tie2); purchased R&D Systems 313-TI-100
From the text: (§1) To better understand the difficulties we had in observing Tie2 activation by VT, we sought to characterize the binding affinity and kinetics of VT to Tie2. Purified human or mouse Tie2-Fc (i.e., Fc-conjugated extracellular domains of Tie2) were first coupled to protein A sepharose beads for pull-down experiments (Fig9A and B) or immobilized on a Biacore CM5 sensor chip for surface plasmon resonance (SPR) experiments (Fig9C and Supplementary Fig S3).
Figure 9 Binding of Vasculotide vs. Ang1 variants to the extracellular domain of Tie2 • A–B Pull-down assay. Input ligands—rhAng1 (A) and VT (B)—were incubated with either protein A sepharose beads only, bead-conjugated mouse Tie2-Fc (mTie2), or bead-conjugated human Tie2-Fc (hTie2). […] The ‘unbound’ fraction is 7% of residual/free ligands remaining in the supernatant. • C Quantitative kinetics analysis by SPR. All analytes were run at increasing concentrations of 0.625, 1.25, 2.5, 5, and 10 nM, at 37°C and pH 7.4. […] Source data are available online for this figure. […]
(§2) 9. Tie2 Receptor-Binding Assays
(§3) Vasculotide (VT) was manufactured by Bachem UK Ltd. T7c (CHHHRHSF) was synthesized by Genscript (Piscataway, NJ, USA). PEG-Cys consists of a single cysteine reacted to each of the 4 arms of PEG-maleimide (Sunbright PTE-100MA, NOF Corporation, Tokyo, Japan). BowAng1 (Ang1-Fd-Fc-Fd) was made and provided by Regeneron Pharmaceuticals, Inc. (Tarrytown, NY, USA). COMP-Ang1 was purified in the Kerbel lab from serum-free culture media conditioned by an engineered CHO cell line provided by Dr. Gou Young Koh (KAIST), according to published protocols (Hwang et al, 2008).
(§4) Recombinant human Angiopoietin-1 (rhAng1) and Vascular Endothelial Growth Factor ( rhVEGF) were […]
(§5) purchased from R&D Systems. […]
(structural/molecular weight control for VT), and 40 μL of supernatant (7% of residual/unbound ligand) – were similarly boiled in SDS sample buffer. Ang1 samples and controls were resolved by 7.5% polyacrylamide gel electrophoresis (PAGE), electroblotted onto PVDF membranes, and probed with an anti-Ang1 antibody (R&D Sytems, AF923; diluted 1:2,000 in TBS supplemented with 7% BSA and 0.1% Tween-20) at 75kDa (reduced monomers). VT samples and controls were resolved by 17% PAGE, blotted onto PVDF membranes, and probed with an anti-PEG antibody (Silver Lake Research, CH2074; diluted 1:4,000 in TBS supplemented with 7% BSA and 0.05% CHAPS*) at higher “apparent” molecular weights than the expected 14 and 10kDa due to their polymeric nature and large hydrodynamic radii (Zheng et al, 2007). *Note: non-ionic, PEO-based, polymer detergents were avoided at these steps as they cross-react with the anti-PEG antibody used for detecting VT.
Surface Plasmon Resonance (SPR) Experiments: The binding of analytes – VT, T7c peptide, PEG-Cys, rhAng1, COMP-Ang1, BowAng1, and rhVEGF – to the extracellular domain of Tie2 were […]
investigated by SPR using a Biacore T200 Instrument (GE Healthcare). For qualitative binding analysis, mTie2-Fc was dissolved in 10mM acetate buffer (pH 4.5) and immobilized at high density onto a CM5 sensor chip using amine coupling chemistry as described by the manufacturer to a response of 11,500RU.
Binding analysis were performed by exposure of immobilized mTie2-Fc to the analytes diluted in HBS-EP (0.01M HEPES pH 7.4, 0.15M NaCl, 3mM EDTA, 0.005% v/v Tween-20), which was supplemented with 1mg/mL carboxymethyl dextran (NSB reducer, GE Healthcare) to reduce non-specific binding to the sensor chip. Analytes were injected at 30μL/min (association time 120s, dissociation time 120s) at 37 °C, and the chip surface was regenerated each cycle by a 60s pulse of 4M MgCl2. To quantitatively determine the kinetic properties of the interaction (KD, kd, ka) and avoid mass transport limitations, mTie2-Fc and hTie2-Fc were immobilized at low density (1,000-1,200RU) onto separate flow cells of the CM5 chip using amine coupling chemistry. Kinetic analyses were performed using a single-cycle kinetic […]

mouse Tie2-Fc (mTie2-Fc) = target: T4, mouse Tie2-Fc (mTie2-Fc) (Mus musculus, UniProt Q02858); experiment: SPR binding to mouse Tie2-Fc; settings: mouse Tie2-Fc (low- and high-density), 37°C, pH 7.4, Supplementary Fig S3
T4 construct: Purified human or mouse Tie2-Fc (i.e., Fc-conjugated extracellular domains of Tie2); purchased R&D Systems 762-T2-100
From the text: as §1, with “S3). […]” for “S3).”
as §2, §3, §4, §5
(structural/molecular weight control for VT), and 40 μL of supernatant (7% of residual/unbound ligand) – were similarly boiled in SDS sample buffer. […]
Binding analysis were performed by exposure of immobilized mTie2-Fc to the analytes diluted in HBS-EP (0.01M HEPES pH 7.4, 0.15M NaCl, 3mM EDTA, 0.005% v/v Tween-20), which was supplemented with 1mg/mL carboxymethyl dextran (NSB reducer, GE Healthcare) to reduce non-specific binding to the sensor chip. […] To quantitatively determine the kinetic properties of the interaction (KD, kd, ka) and avoid mass transport limitations, mTie2-Fc and hTie2-Fc were immobilized at low density (1,000-1,200RU) onto separate flow cells of the CM5 chip using amine coupling chemistry. […] All data were analysed using BIA Evaluation Software 2.0 (GE Healthcare) to calculate kd, ka and KD using the 1:1 ligand binding model. […]

[2] = target: T1, human Tie2-Fc (Fc-conjugated …); experiment: SPR
[3] = target: T1, human Tie2-Fc (Fc-conjugated …); experiment: SPR
[4] = target: T2, mouse Tie2-Fc (Fc-conjugated …); experiment: SPR
[5] = target: T2, mouse Tie2-Fc (Fc-conjugated …); experiment: SPR

Molecule | inhibition of Ang1 or Ang2 binding to Tie2 [1] | koff [2] [s⁻¹] | Kd [3] [nM] | koff [4] [s⁻¹] | Kd [5] [nM] | also measured
NLLMAAS [T4] | able to competitively inhibit Ang1 or Ang2 binding to Tie2 | – | – | – | – | Ki ([1]; ELISA and SPR, read-out: Ki, competitive inhibition of Ang1 or Ang2 binding to Tie2): ~300000 nM
VEGF | – | – | – | – | – | binding to Tie2-Fc (human Tie2-Fc (hTie2-Fc)): no binding to Tie2-Fc was detectable; binding to Tie2-Fc (human Tie2-Fc (hTie2-Fc); listed as rhVEGF): no detectable binding; binding to Tie2-Fc (mouse Tie2-Fc (mTie2-Fc)): no binding to Tie2-Fc was detectable
HHHRHSF [T7, HHHRHSF, heptapeptide identified by phage display, synthetic free form] | did not inhibit Ang1 or Ang2 binding to Tie2 | – | – | – | – | –
B1 | – | 0.00361 | 1.36 | 0.00208 | 1.32 | –
B2 | – | 0.00232 | 0.611 | 0.00231 | 0.465 | –
